Measurements from paper PMC12480952 (Nature Communications, 2025).
Substitutions are numbered along the chain they refer to. In names and notes the source's numbering stands.

B1: BCL-2ΔLΔC WT (domain or fragment, human)
chain: MAHAGRTGYDNREIVMKYIHYKLSQRGYEWDAGDDVEENRTEAPEGTESEVVHLTLRQAGDDFSRRYRRDFAEMSSQLHLTPFTARGRFATVVEELFRDGVNWGRIVAFFEFGGVMCVESVNREMSPLVDNIALWMTEYLNRHLHTWIQDNGGWDAFVELYGPSMRA
B2: BCL-2ΔLΔC A113G (domain or fragment, human)
chain: B1 chain with A72G
B3: BCL-2ΔLΔC V156D (domain or fragment, human)
chain: B1 chain with V115D
B4: BCL-2ΔLΔC D103Y (domain or fragment, human)
chain: B1 chain with D62Y
B5: BCL-2ΔLΔC G101V (domain or fragment, human)
chain: B1 chain with G60V
B6: BCL-2ΔLΔC R129L (domain or fragment, human)
chain: B1 chain with R88L
B7: BCL-2ΔLΔC F104L (domain or fragment, human)
chain: B1 chain with F63L

Each binder was assayed against FITC-BIM BH3 (FITC at the N-terminus) (assay: fluorescence polarisation).

EC90 [nM]	Binder
8.6	B1
23	B2
17	B3
21	B4
5.8	B5
8.7	B6
1.6	B7
